The values that follow come from PMC2908543, “Uropathogenic Escherichia coli Modulates Immune Responses and Its Curli Fimbriae Interact with the Antimicrobial Peptide LL-37” (PLoS Pathogens, 2010).

Residues, ends and D or L forms follow the SMILES beside them.

The target in one series is T1, CsgA polymerization (Escherichia coli, UniProt P28307).
T1 construct: made in house; host or cells: E. coli LSR12 (C600::csg), co-expressed with CsgG
The series is described as follows: CsgA polymerization, Thioflavin T assay, Tecan plate reader. The format is biochemical. To be noted: 20 µM ThT, 37°C. The method, then:
(§1) CsgA-His6 and CsgG, a lipoprotein that is required for CsgA secretion, were overexpressed in LSR12 (C600::csg). The purification procedure of recombinant CsgA-His6 was performed as previously described with some modifications. The filtrate was incubated with nickel-nitrilotriacetic acid (Ni-NTA) agarose (Invitrogen) for 1 h at 4°C with shaking, centrifuged at 200×g for 5 min and transferred to a polyprep chromatography column (Bio-Rad, Hercules, CA, USA). To confirm protein identity of CsgA-His6, the isolated protein was prepared and subjected to SDS-PAGE as described below, and thereafter the protein was transferred from the gel to a polyvinylidene fluoride (PVDF) membrane (Invitrogen) at 160 mA for 60 min. The band of 15 kDa, corresponding to the molecular weight of CsgA-His6, was excised from the membrane stained with Coomassie Blue and analysed with N-terminal sequence analysis as has been described. Since it has previously been shown that CsgA-His6 has the same polymerizing properties as wild-type CsgA [59], we refer to CsgA-His6 as CsgA.
Purified recombinant monomeric CsgA (10 µM) with or without different concentrations of the peptides LL-37, sLL-37 or VIP was mixed with 20 µM of the fiber-specific fluorescent probe ThT (Sigma-Aldrich). Fluorescence was measured with a Tecan infinite M200 reader (Tecan Nordic AB, Täby, Sweden). The excitation and emission wavelength was 430 and 490 nm, respectively. Measurements were conducted at 37°C every 10 min after shaking the sample for five seconds. Background fluorescence of the peptides themselves was subtracted.

The test system of another series is toll-like receptor 2. The settings on record: cytokine induction by Salmonella; ref [31]; cited from earlier work. From the text: In the pathogenesis of infection, curli fimbriae have previously been implicated in the attachment and invasion of host cells, interaction with host proteins and activation of the immune system, [29], [30].
In the next series the test system is CsgA. Put plainly: CD spectroscopy of CsgA. Further details: species or system Escherichia coli. The settings on record: 40 µM CsgA alone, 50 mM KPi, 0.02% NaN3, pH 7.2, 60 h at 37°C. The procedure: Samples containing 40 µM CsgA in 50 mM potassium phosphate buffer (KPi) and 0.02% NaN3, pH 7.2, with and without 10 µM LL-37 were incubated for 60 h at 37°C. The samples were then assayed with a Jasco J-810 spectropolarimeter from 190 to 250 nm in a quartz cell with a 1-mm path length at 20°C. The spectrum of buffer alone and LL-37 in buffer was subtracted from the spectra for CsgA alone and for CsgA together with LL-37, respectively.

The test system of series [1] is E. coli strain No. 12 and isogenic mutants. The format is cell-based, Escherichia coli. The settings on record: bacteria pre-grown planktonically, curli expression suppressed (data not shown). The method, then: For further investigation, E. coli isolate No. 12 from a child with pyelonephritis was chosen. This was a typical isolate expressing both curli and cellulose as well as type 1 fimbriae and yielding an approximately median level of biofilm as measured on microtiter plates. One-step knockout of bcsA and csgBA was carried out according to the protocol of Datsenko and Wanner with modifications, [50]. The following mutants were constructed using oligos listed in Table 1; WE1 bcsA::Cm, deficient in cellulose production; WE11 csgBA::Cm, deficient in curli production; and WE16 csgBA bscA::Cm, deficient in both cellulose and curli production. Expression of curli and cellulose in strain No. 12 was confirmed by these knockouts. Production of type 1 fimbriae under the culture conditions used for experiments was confirmed by yeast agglutination (see below).
The susceptibility of wild-type and mutant E. coli strains to synthetic LL-37 and mCRAMP (Innovagen AB, Lund, Sweden) was determined using a broth microdilution method. Briefly, bacteria were grown overnight at 37°C on LB plates with or without salt, inhibiting or promoting the formation of biofilm, respectively. Then, bacteria were suspended in PBS and diluted in LB broth without salt in a concentration of 10^5 CFU/ml. The bacterial concentration was verified by viable count after serial dilutions in PBS. Bacteria (90 µl suspension) were grown in 96-well plates in the presence of 10 µl aqueous solution of synthetic LL-37 or mCRAMP in final concentrations ranging from 0.6 µM to 20 µM in 2-fold dilutions. After 20 h, bacterial viability was measured colorimetrically by reduction of Alamar blue (BioSource International, Camarillo, CA, USA) for 1 h at 37°C [57]. The IC50 was determined as the peptide concentration that gave 50% reduction of the absorbance at 570 nm relative to bacteria grown without peptide.

The target in the next series is T2, monomeric CsgA (Escherichia coli, UniProt P28307).
T2 construct: made in house; host or cells: E. coli LSR12 (C600::csg), co-expressed with CsgG
T2 sequence (P28307 21-151): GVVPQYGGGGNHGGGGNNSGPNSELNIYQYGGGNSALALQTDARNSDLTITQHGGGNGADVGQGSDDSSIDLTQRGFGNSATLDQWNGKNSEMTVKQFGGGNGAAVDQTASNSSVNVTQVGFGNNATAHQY
The series is described as follows: Surface plasmon resonance, monomeric CsgA. To be noted: monomeric CsgA immobilized (2000 response units), 0.1 µM peptide, 20 µl/min for 3 min, HBS-EP, Biacore 3000; binding constants not determinable. The method, then: (§2) Binding analysis of LL-37 to both monomeric and polymeric CsgA was performed with surface plasmon resonance (Biacore 3000 instrument; Biacore AB, Uppsala, Sweden). Both monomeric and polymeric CsgA was immobilized on a CM5 sensor chip (Biacore AB) surface by amine coupling. The chip surface was normalized in 70% glycerol and lanes on the chip were activated with injection of 35 µL 0.05 M N-hydroxysuccinimide (NHS)/0.2 M N-ethyl-N′-[3-dimethylamino) propyl]carbodiimide (EDC). Polymeric or monomeric CsgA (1 µM in 10 mM sodium acetate, pH 4.5) was then immobilized on the chip to 7000 response units and 2000 response units, respectively. After immobilization, the lanes were subjected to 60 µL ethanolamine (1 M, pH 8.5) to deactivate remaining activated carboxylic groups. One lane, activated and deactivated, was used as negative control (without addition of CsgA). Standard Biacore HBS-EP (Biacore AB) was utilized as running buffer, and 0.1 µM LL-37, sLL-37 or VIP were injected at 20 µl/min for 3 min. The surface was regenerated after each cycle with 100 mM HCl.
(Surface plasmon resonance follows binding to a sensor surface in real time, without labels.)

The test system of another series is CsgA fiber formation. The series is described as follows: CsgA fiber formation, Thioflavin T, confocal microscopy. The format is biochemical, Escherichia coli. The settings on record: CsgA with equimolar peptide (1∶1), 20 µM ThT, 20 h at 37°C; CsgA alone = 1 arbitrary unit; corrected for peptide fluorescence; two experiments. The method, then: as §1
Recombinant monomeric CsgA was mixed with equimolar LL-37, sLL-37 or VIP and 20 µM ThT, and incubated over night at 37°C, washed twice, and suspended in 10 mM Kpi, pH 7.2 before mounting in ProLong Gold antifade mounting medium (Invitrogen). Images were acquired on a Leica TCS SP5 confocal microscope using a 20× objective. Fluorescence intensity was quantified using ImageJ software. The difference in fluorescence intensity of CsgA with and without peptides was calculated and corrected for the contribution of fluorescence from the peptides themselves.

The test system of series [2] is curli-mediated biofilm formation by E. coli. The series is described as follows: Effect on formation of biofilm, crystal violet microtiter plate. Format: cell-based, Escherichia coli. The procedure:
To measure the ability of the bacteria to adhere and to form biofilm a crystal violet assay in polystyrene microtiter plates (Costar, Corning, NY, USA) was performed. Bacteria were grown in Luria-Bertani (LB) broth without salt for 24 h at 37°C without shaking. Biofilm was then stained with crystal violet (3%). The dye was solubilized with ethanol (95%) and the optical density was measured at 570 nm.
Plates were filled with 90 µL bacterial culture of planktonic cells and 10 µL of aqueous solution of LL-37 in the same concentrations as in the susceptibility assay. As control peptides, sLL-37 (Innovagen AB) and VIP [27] with similar structural properties as LL-37 were utilized. The plates were incubated without shaking at 37°C for 20 h. After incubation, the amount of biofilm formed was determined as described above.

For a further series, the target named is T3, polymeric CsgA (Escherichia coli, UniProt P28307).
T3 construct: made in house; host or cells: E. coli LSR12 (C600::csg), co-expressed with CsgG
T3 sequence (P28307 21-151): as above
Put plainly: Surface plasmon resonance, polymeric CsgA. To be noted: polymeric CsgA immobilized (7000 response units), 0.1 µM peptide, 20 µl/min for 3 min, HBS-EP, Biacore 3000; binding constants not determinable. The procedure:
as §2

T1 sequence (P28307 21-151): as above

In the case of “CsgA: major curli subunit, recombinant CsgA-His6”, in the series with CsgA polymerization (10 µM CsgA alone), the “time to stationary phase of CsgA polymerization” value was “approximately 300 min”. Moreover, in the series on toll-like receptor 2, the “binding to toll-like receptor 2” value was “binding of CsgA to toll-like receptor 2”. In addition, the “solubility of polymeric CsgA (from CD signal amplitude)” value with CsgA is on record as “decreased solubility due to polymerization”.
In the case of `CC[C@H](C)[C@H](NC(=O)[C@H](CCCCN)NC(=O)[C@H](CCC(=O)O)NC(=O)CNC(=O)CNC(=O)[C@H](CCCCN)NC(=O)[C@H](CCCNC(=N)N)NC(=O)[C@H](CC(C)C)NC(=O)[C@H](CC(C)C)NC(=O)CN)C(=O)NCC(=O)N[C@@H](CCC(=O)O)C(=O)N[C@@H](CCCCN)C(=O)N[C@@H](CC(C)C)C(=O)N[C@@H](CCCCN)C(=O)N[C@@H](CCCCN)C(=O)N[C@H](C(=O)NCC(=O)N[C@@H](CCC(N)=O)C(=O)N[C@@H](CCCCN)C(=O)N[C@H](C(=O)N[C@@H](CCCCN)C(=O)N[C@@H](CC(N)=O)C(=O)N[C@@H](Cc1ccccc1)C(=O)N[C@@H](Cc1ccccc1)C(=O)N[C@@H](CCC(N)=O)C(=O)N[C@@H](CCCCN)C(=O)N[C@@H](CC(C)C)C(=O)N[C@H](C(=O)N1CCC[C@H]1C(=O)N[C@@H](CCC(N)=O)C(=O)N1CCC[C@H]1C(=O)N[C@@H](CCC(=O)O)C(=O)N[C@@H](CCC(N)=O)C(=O)O)C(C)C)[C@@H](C)CC)[C@@H](C)CC` [mCRAMP] (H-GLLRKGGEKIGEKLKKIGQKIKNFFQKLVPQPEQ-OH; N-terminus and C-terminus assumed), in series [1], the “difference in resistance between the strains” value is recorded as “no significant difference in the resistance”.
For the compound vasoactive intestinal peptide [VIP], the “binding / association and dissociation by SPR” value was “faster dissociation rates than LL-37, indicating a weaker binding to CsgA” with monomeric CsgA and “faster dissociation rates than LL-37, indicating a weaker binding to CsgA” with polymeric CsgA. Also, the “inhibition of CsgA polymerization (ThT fluorescence)” value in the series with CsgA polymerization (10 µM CsgA with different concentrations of peptide) is listed as “less pronounced effect on CsgA polymerization than LL-37”. Further, in the series on CsgA fiber formation, the “fluorescence relative to CsgA alone” value is listed as “approximately 0.2 arbitrary units”. Besides, the “reduction of biofilm formation” value in series [2] (2.5 µM peptide, cellulose-negative, curli-expressing E. coli strain, 37°C, 20 h, two experiments in triplicates) was determined as 10%. Also, the “biofilm reduction compared with the effect of LL-37” value in series [2] (2.5 µM, P = 0.001, t-test) is recorded as “significantly lower reduction than the effect of LL-37”.
